# Laboratory results: patent US20220226469A1
# Molecular target: Fc tagged human SIRPα (ACRO #SIG-H5251, genotype variant 1) (human) (UniProt P78324)
# Test: solid-phase ELISA on plate-coated Fc tagged human SIRPα; apparent Kd
# Chain of Fc tagged human SIRPα (ACRO #SIG-H5251, genotype variant 1) (human) (P78324 31-370, change not shown): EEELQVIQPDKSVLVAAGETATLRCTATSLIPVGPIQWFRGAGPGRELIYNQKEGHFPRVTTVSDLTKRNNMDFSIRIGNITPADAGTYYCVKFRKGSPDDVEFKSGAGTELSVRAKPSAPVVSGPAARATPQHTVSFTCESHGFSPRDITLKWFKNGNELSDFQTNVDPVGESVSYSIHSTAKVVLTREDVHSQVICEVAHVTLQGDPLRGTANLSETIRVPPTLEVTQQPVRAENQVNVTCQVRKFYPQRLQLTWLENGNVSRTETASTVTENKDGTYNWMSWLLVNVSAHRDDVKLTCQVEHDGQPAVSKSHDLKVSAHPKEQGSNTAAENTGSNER
binder,measurement,value
"SIRP1 (antibody, mouse IgG1, kappa, V domains shown) VH: QVQLQQSGAELMKPGASVKISCKATGYSFTKYWIEWVKQRPGHGLEWIGEILPGSVITNYNEKFKGKATFTADTSSNTVYMQLSSLTSEDSAVYYCTKWGLYDSDDGVDYWGQGTTLTVSS VL: ENVLTQSPAIMSASLGEKVTMSCRASSGVNYMYWYQQKSDASPKLLIYYTSILAPGVPARFSGSGSGNSYSLTISSMEGEDAATYYCQQFTSSPYTFGGGTKLEIKR",Kd,0.039 nM
"SIRP2 (antibody, mouse IgG1, kappa, V domains shown) VH: EVKLVESGGGLVQPGGSLKLSCAASGFSFSGCTMSWIRQTPERRLEWVAYISNGGDITYYPDTVKGRFTISRDNAKNSLYLQMSSLKSEDTAMYYCARLDGYYYAMDFWGQGTSVTVSS VL: DILLTQSPAILSVSPGERVSFSCRASQSIGTSIHWYQQRTNGSPRLLIKYGSESISGIPSRFSGSGSGTDFTLSINSVESEDIADYYCQQSNTWPLTFGDGTKLELKR",Kd,0.182 nM
"SIRP7 (antibody, V domains shown) VH: EVQLQQSGPELVKPGASVKMSCRASGYTFSTYVMHWIKHRPGQGLEWIGYINPNNDGPNYNEKFKGKATLTSDISSSTAYMELSSLTSEDSAVYFCSRWDSYNSAAGFAYWGHGTLVTVSA VL: EIVLTQSPTTMAASPGEKITIICSASSSISSNFLHWYQQKPGFSPRFLIYRTSILASGVPTRFSGSGSGTSYSLTIDTMEAEDVATYYCQQGSGLPLTFGSGTKLEIK",Kd,0.197 nM
"SIRP5 (antibody, V domains shown) VH: QVQLQQSAAELARPGASVKMSCKASGYTFTSYTMHWVKQRPGQGLEWIGYINPTIGYTEYNQKFKDKTTLTADKSSSTAYMQLSSLTSEDSAVYYCVRLVITSVLGRAMDYWGQGTSVTVSS VL: QIVLTQSPALMSASPGEKVTMTCSASSSVSYMYWFQQKPRSSPKPWIYLTSNLASGVPARFSGSGSGTSYSLTISSMEAEDAATYYCQQWSGNPFTFGSGTKLEIK",Kd,0.065 nM
"SIRP6 (antibody, V domains shown) VH: QIQLVQSGPELKKPGETVKISCKASGYTFTDYGVNWVKQGPGKDLQWMGWVNTNTRESTYVEDFKGRFAFSLETSASTAYLQINNLKNEDSSTYFCARGAYDAYYYYYGMDYWGQGTSVTVSS VL: DIQMTQSPASLSASVGETVTITCRASENIYSYLTWYKQKQGKSPQLLVYNAKTLAEGVPSRFSGSGSGTQFSLKINSLQPEDFGSYYCQHHYGSPRTFGGGTKLEIK",Kd,0.131 nM
"SIRP12 (antibody, human IgG4 S228P, kappa, V domains shown) VH: QVQLVQSGAEVKKPGASVKVSCKASGYSFTDYFLNWVRQAPGQGLEWMGRINPYNGDSFINQNFRDRVTMTRDTSTSTVYMELSSLRSEDTAVYYCARGGYDGYFIAYFDYWGAGTTVTVSS VL: DIQMTQSPSSLSASVGDRVTITCKASQDINSHLSWYQQKPGKAPKLLIYRANRLATGVPSRFSGSGSGTDFTFTISSLEYEDIATYYCLQYDEFPYTFGGGTKLEIKR",Kd,0.165 nM
"SIRP15 (antibody, human IgG4 S228P, kappa, V domains shown) VH: QVQLVQSGAEVKKPGSSVKVSCKASGYSFTDYFLNWVRQAPGQGLEWMGRINPYNGDSFINQNFRDRVTITADKSTSTAYMELSSLRSEDTAVYYCARGGYDGYFIAYFDYWGAGTTVTVSS VL: DIQMTQSPSSLSASVGDRVTITCKASQDINSHLSWYQQKPGKAPKLLIYRANRLATGVPSRFSGSGSGTDFTFTISSLEYEDIATYYCLQYDEFPYTFGGGTKLEIKR",Kd,0.608 nM
"SIRP21 (antibody, human IgG4 S228P, kappa, V domains shown) VH: QVQLVQSGAEVKKPGASVKVSCKASGYSFTDYFLNWVRQAPGQGLEWMGRINPYNGDSFINQNFRDRVTMTVDTSTSTVYMELSSLRSEDTAVYYCARGGYDGYFIAYFDYWGAGTTVTVSS VL: DIQMTQSPSSLSASVGDRVTITCKASQDINSHLSWYQQKPGKAPKLLIYRANRLATGVPSRFSGSGSGTDFTFTISSLEYEDIATYYCLQYDEFPYTFGGGTKLEIKR",Kd,0.274 nM
"SIRP18 (antibody, human IgG4 S228P, kappa, V domains shown) VH: EVQLVQSGAEVKKPGESLKISCKGSGYSFTDYFLNWVRQMPGKGLEWMGRINPYNGDSFINQNFRDQVTISADKSISTAYLQWSSLKASDTAMYYCARGGYDGYFIAYFDYWGAGTTVTVSS VL: DIQMTQSPSSLSASVGDRVTITCKASQDINSHLSWYQQKPGKAPKLLIYRANRLATGVPSRFSGSGSGTDFTFTISSLEYEDIATYYCLQYDEFPYTFGGGTKLEIKR",Kd,0.364 nM
"SIRP10 (antibody, V domains shown) VH: EVQLQESGAELVRPGTSVKMSCKAAGYTFSNYLIGWIKQRPGHGLEWIGDIYPGDNNTNYNEKFRVKATLTADTSSNTAYMHLTSLTSEDSAIYYCAGGTDYDGFANWGQGTLVTVSA VL: ENVLTQSPAIMSASLGEKVTMSCRASSSVNYMYWYQQKSDASPKLWIYYTSKLAPGVPARFSGSGSGNSYSLTISSMEGEDAATYYCQQFTSSPFTFGSGTKLEIK",Kd,> 10 nM
"SIRP8 (antibody, V domains shown) VH: EVQLQESGGGLVKPGGSLKLSCAASGFTLSTYTMSWVRQTPEKRLEWVAIITSGDTYTYYPDSVKGRFTISRDNAKNTLYLQMSSLKSEDTGMYYCTRDRPLFHWGQGTTLTVST VL: QIVLTQSPAIMSASPGEKVTMTCSASSSVSYMYWYQQKPGSSPRLLIYDTSNLASGVPVRFSGSGSGTSYSLTISRMEAEDAATYYCQQWSSFPWTFGGGTKLEIK",Kd,0.057 nM
"SIRP23 (antibody, human IgG4 S228P, kappa, V domains shown) VH: EVQLQQSGPDLVKPGASVKISCKASGYSFTDYFLNWVKQSHGKSLEWIGRINPYNGDSFINQNFRDKATLTVDKSSTTAHMDLLSLTSEDSAIYYCGRGGYDGYFIAYFDYWGQGSLVTVSA VL: DIKMTQSPSSMYASLGQRVTITCKASQDINSHLSWFQEKPGKSPKTLIYRANRLADGVPSRFSGSGSGQDYFLTISSLEYEDVGIYYCLQYDEFPYTFGGGTKLEIKR",Kd,0.164 nM
"SIRP4 (antibody, V domains shown) VH: EVQLQQSGPDLVKPGASVKISCKASGYSFTDYFLNWVKQSHGKSLEWIGRINPYNGDSFINQNFRDKATLTVDKSSTTAHMDLLSLTSEDSAIYYCGRGGYDGYFIAYFDYWGQGSLVTVSA VL: DIKLTQSQSSMYSSLGQRVTITCKASQDINSHLSWFQEKPGKSPKTLIYRANRLADGVPSRFSGSGSGQDYFLTISSLEYEDVGIYYCLQYDEFPYTFGGGTKLEIK",Kd,0.161 nM
"SIRP9 (antibody, V domains shown) VH: EVQLQESGAELVRPGASVKLSCKALGYTFTDYEIHWVKETPVYGLEWIGDIHPGSGGTANNQKFKGKATLTADKSSNTAYMELSSLTSEDSAVYYCTRAVSGYYAMDYWGQGTSVTVSS VL: DIQMTQSSSSFSGSLGDRLTINCKASEDIYDRVAWYQQKPGNAPRLLISGTASLETGVLSRFSGSGSGKDYTLSINGLQAEDVATYYCQQYWTTPWTFGGGTKLEIK",Kd,0.583 nM
"SIRP3 (antibody, mouse IgG1, kappa, V domains shown) VH: EVQLQQSGPEVVKPGASVKMSCKASGYTFTSYVMHWVKQKPGQGLEWIGYINPYNDGPKYNEKFKGKATLTSDKSSSTAYMELSSLTSEDSAVYFCARWDYFNSASGFAFWGQGTLVTVSA VL: EIVLTQSPTTMAASPGEKITIICSASSIIGSDFLHWYQQRPGFSPKFLIYRTSILASGVPTRFTGSGSGTSYSLTIGTMEAEDVATYYCQQGSGLPLTFGSGTKLEMKR",Kd,0.289 nM
